In this assay the target is T1, PD-1 on circulating T cells of patients (human, UniProt Q15116 25-288).
T1 construct: whole, on cells; Probably the same protein as m2
Briefly: receptor occupancy by flow cytometry on blood of patients treated with DART-D. On the procedure: Receptor Occupancy (RO): One hundred microliter […] volumes of whole blood samples (per time point/per patient) were incubated with saturating concentration of DART-D, followed by lysis and detection of DART-D by biotinylated anti-drug mAb/Strep-PE in “DART-D-spiked” and control samples. After subtraction of background fluorescence (Step-PE only), RO values were calculated as a fraction of maximal binding capacity: RO=(untreated MFI(PE)−background MFI(PE))/(treated MFI(PE)−background MFI(PE)).
On the technique in general: A flow cytometer gives signals particle by particle.

T1 sequence (Q15116 25-288): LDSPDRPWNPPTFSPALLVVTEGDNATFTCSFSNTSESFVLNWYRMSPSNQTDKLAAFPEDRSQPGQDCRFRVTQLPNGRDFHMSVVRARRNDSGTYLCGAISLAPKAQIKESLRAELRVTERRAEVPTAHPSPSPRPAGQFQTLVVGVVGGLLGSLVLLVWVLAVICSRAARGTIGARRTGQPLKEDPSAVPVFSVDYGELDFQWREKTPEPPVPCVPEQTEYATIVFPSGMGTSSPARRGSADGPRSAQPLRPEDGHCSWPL

B1: DART-D (bispecific antibody, human IgG4 S228P)
chain 1: EIVLTQSPATLSLSPGERATLSCRASESVDNYGMSFMNWFQQKPGQPPKLLIHAASNQGSGVPSRFSGSGSGTDFTLTISSLEPEDFAVYFCQQSKEVPYTFGGGTKVEIKGGGSGGGGQVQLVESGGGVVQPGRSLRLSCAASGFTFSSYTMHWVRQAPGKGLEWVTFISYDGSNKHYADSVKGRFTVSRDNSKNTLYLQMNSLRAEDTAIYYCARTGWLGPFDYWGQGTLVTVSSGGCGGGEVAACEKEVAALEKEVAALEKEVAALEKESKYGPPCPPCPAPEFLGGPSVFLFPPKPKDTLYITREPEVTCVVVDVSQEDPEVQFNWYVDGVEVHNAKTKPREEQFNSTYRVVSVLTVLHQDWLNGKEYKCKVSNKGLPSSIEKTISKAKGQPREPQVYTLPPSQEEMTKNQVSLTCLVKGFYPSDIAVEWESNGQPENNYKTTPPVLDSDGSFFLYSRLTVDKSRWQEGNVFSCSVMHEALHNHYTQKSLSLSLG
chain 2: not shown
notes: Tetravalent (2x2) four-chain Fc-bearing diabody, two sites for PD-1 and two for CTLA-4; also called MGD019; PD-1×CTLA-4 bispecific molecule
As for B1, the binding result is on record as “binds”.
